These results are taken from publication PMC2766537.

This experiment concerns the target glycosylphosphatidylinositol-anchored avidin test probe (avidin/CD14 fusion) (chicken | human) (UniProt P02701).

For orientation: stoichiometry N means a count of units in the complex or per binding partner. In the case of “glycosylphosphatidylinositol-anchored avidin test probe (avidin/CD14 fusion) (from UniProt P02701 25-152; P08571 318-375)”, the stoichiometry N is 4.
